Assay results taken from publication PMC9064986 (2022).
Where a chain is given by its changes, count along the chain named.

B1: BMPRII extracellular domain (ECD), wild type (domain or fragment)
chain: SQNQERLCAFKDPYQQDLGIGESRISHENGTILCSKGSTCYGLWEKSKGDINLVKQGCWSHIGDPQECHYEECVVTTTPPSIQNGTYRFCCCSTDLCNVNFTENFPPPDTTPLSPPHSFNRDET
B2: BMPRII-Fc (R&D Systems) (Fc fusion)
chain: B1 chain
B3: Recombinant human BMP10 growth factor (GF)-domain (R&D Systems) (ligand)
chain: NAKGNYCKRTPLYIDFKEIGWDSWIIAPPGYEAYECRGVCNYPLAEHLTPTKHAIIQALVHLKNSQKASKACCVPTKLEPISILYLDKGVVTYKFKYEGMAVSECGCR

Columns and labels:
[1] = molecular target: B3; assay: SPR
[2] = molecular target: B3; assay: SPR
[3] = molecular target: B3; assay: SPR; BMP10 immobilised
[4] = molecular target: B3; assay: SPR; BMP10 immobilised
BMPRII ECD ΔF1 = BMPRII ECD ΔF1 (human, UniProt Q13873-1 27-150); assay: SPR
BMPRII ECD ΔF3 = BMPRII ECD ΔF3 (human, UniProt Q13873-1 27-150); assay: SPR
BMPRII ECD S107P [5] = molecular target: T1, BMPRII ECD S107P (human, UniProt Q13873-1 27-150, S107P); assay: SPR
T1 sequence: B1 chain with S81P

BMPRII ECD N126S [6] = molecular target: T2, BMPRII ECD N126S (human, UniProt Q13873-1 27-150, N126S); assay: SPR
T2 sequence: B1 chain with N100S

BMPRII ECD G89A [7] = molecular target: T3, BMPRII ECD G89A (human, UniProt Q13873-1 27-150, G89A); assay: SPR
T3 sequence: B1 chain with G63A

BMPRII ECD E98K [8] = molecular target: T4, BMPRII ECD E98K (human, UniProt Q13873-1 27-150, E98K); assay: SPR
T4 sequence: B1 chain with E72K

BMPRII ECD G89E [9] = molecular target: T5, BMPRII ECD G89E (human, UniProt Q13873-1 27-150, G89E); assay: SPR
T5 sequence: B1 chain with G63E

BMPRII ECD G89W [10] = molecular target: T6, BMPRII ECD G89W (human, UniProt Q13873-1 27-150, G89W); assay: SPR
T6 sequence: B1 chain with G63W

BMPRII ECD Q92H [11] = molecular target: T7, BMPRII ECD Q92H (human, UniProt Q13873-1 27-150, Q92H); assay: SPR
T7 sequence: B1 chain with Q66H

BMPRII-Fc (R&D Systems) [12] = molecular target: B2; assay: SPR; BMPRII-Fc immobilised
BMPRII-Fc (R&D Systems) [13] = molecular target: B2; assay: SPR; BMP10 pre-complexed with ALK1 ECD
BMPRII-Fc (R&D Systems) [14] = molecular target: B2; assay: SPR; BMPRII-Fc immobilised
BMPRII-Fc (R&D Systems) [15] = molecular target: B2; assay: SPR; BMP10 pre-complexed with ALK1 ECD
BMPRII ECD S107P [16] = molecular target: T1, BMPRII ECD S107P; assay: SPR; remark: listed apart in the source
BMPRII ECD N126S [17] = molecular target: T2, BMPRII ECD N126S; assay: SPR; remark: listed apart in the source
BMPRII ECD G89A [18] = molecular target: T3, BMPRII ECD G89A; assay: SPR; remark: listed apart in the source
BMPRII ECD E98K [19] = molecular target: T4, BMPRII ECD E98K; assay: SPR; remark: listed apart in the source
BMPRII ECD G89E [20] = molecular target: T5, BMPRII ECD G89E; assay: SPR; remark: listed apart in the source
BMPRII ECD G89W [21] = molecular target: T6, BMPRII ECD G89W; assay: SPR; remark: listed apart in the source
BMPRII ECD Q92H [22] = molecular target: T7, BMPRII ECD Q92H; assay: SPR; remark: listed apart in the source

B1
koff [1]: 0.161 s⁻¹
Kd [2]: 1190 nM

B2
Kd [3]: 4.47 nM
koff [4]: 0.000857 s⁻¹

B3
Kd (BMPRII ECD ΔF1): 6630 nM
koff (BMPRII ECD ΔF1): 0.309 s⁻¹
Kd (BMPRII ECD ΔF3): 4170 nM
koff (BMPRII ECD ΔF3): 0.49 s⁻¹
koff (BMPRII ECD S107P [5]): 0.0423 s⁻¹
koff (BMPRII ECD N126S [6]): 0.14 s⁻¹
koff (BMPRII ECD G89A [7]): 0.331 s⁻¹
koff (BMPRII ECD E98K [8]): 0.158 s⁻¹
koff (BMPRII ECD G89E [9]): 0.609 s⁻¹
koff (BMPRII ECD G89W [10]): 0.433 s⁻¹
koff (BMPRII ECD Q92H [11]): 0.147 s⁻¹
Kd (BMPRII-Fc (R&D Systems) [12]): 0.338 nM
koff (BMPRII-Fc (R&D Systems) [13]): 0.00138 s⁻¹
koff (BMPRII-Fc (R&D Systems) [14]): 0.000838 s⁻¹
Kd (BMPRII-Fc (R&D Systems) [15]): 1.6 nM
Kd (BMPRII ECD S107P [16]): 328 nM
Kd (BMPRII ECD N126S [17]): 1320 nM
Kd (BMPRII ECD G89A [18]): 3190 nM
Kd (BMPRII ECD E98K [19]): 1070 nM
Kd (BMPRII ECD G89E [20]): 153000 nM
Kd (BMPRII ECD G89W [21]): 237000 nM
Kd (BMPRII ECD Q92H [22]): 1220 nM
